Results from PMC10828496 (Cell Discovery, 2024).
Numbering of substitutions follows the chain as printed. Names may count otherwise.

Legend:
[1] = target: T1, METTL15^70–407 (Homo sapiens, UniProt A6NJ78); test: isothermal titration calorimetry; assay type: binding
T1 construct: residues 70-407; N-terminal SUMO tag cleaved with ULP1; E. coli Rosetta (DE3)
T1 sequence (A6NJ78 70-407): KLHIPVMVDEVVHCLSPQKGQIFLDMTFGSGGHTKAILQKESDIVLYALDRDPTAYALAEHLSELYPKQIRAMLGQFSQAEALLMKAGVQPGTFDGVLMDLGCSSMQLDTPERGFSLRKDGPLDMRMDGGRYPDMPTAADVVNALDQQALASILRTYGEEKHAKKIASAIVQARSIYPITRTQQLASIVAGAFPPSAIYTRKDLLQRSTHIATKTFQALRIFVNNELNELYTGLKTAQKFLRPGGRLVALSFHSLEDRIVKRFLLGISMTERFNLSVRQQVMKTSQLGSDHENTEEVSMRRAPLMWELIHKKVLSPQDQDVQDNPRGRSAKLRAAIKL

[2] = target: T2, METTL15^70–407 (Homo sapiens, UniProt A6NJ78, D119A); test: isothermal titration calorimetry; assay type: binding
T2 construct: residues 70-407; N-terminal SUMO tag cleaved with ULP1; E. coli Rosetta (DE3)
T2 sequence (A6NJ78 70-407 D119A): T1 sequence (A6NJ78 70-407) with D50A

[3] = target: METTL15^70–407 (human METTL15, residues 70–407), wild type (human, UniProt A6NJ78 70-407); test: ITC; Microcal PEAQ-ITC, 20 °C, buffer B (50 mM Na2HPO4, 150 mM NaCl, pH 7.0); hsRBFA 600 μM and METTL15 40 μM; single binding site model; conditions: both partners purified
[4] = target: METTL15^70–407 N212A (human, UniProt A6NJ78 70-407, N212A); test: as above; conditions: both partners purified
[5] = target: METTL15^70–407 D209A (human, UniProt A6NJ78 70-407, D209A); test: as above; conditions: both partners purified
[6] = target: T3, METTL15 WT;hsRBFA C-terminal helix (Homo sapiens;Homo sapiens, UniProt A6NJ78;Q8N0V3 70-407;226-260, |); test: fluorescence polarization; +hsRBFA 226-260; FP: dilution buffer B (50 mM Na2HPO4, 150 mM NaCl, pH 7.0), 20 C, 15 min incubation, 80 nM FAM-RNA stock mixed 1:1 (40 nM final); 1:1 binding model; conditions: protein: recombinant;recombinant, tags: SUMO tag removed (ULP1);GST tag removed (TEV), copies: 1;1, label: 5'-FAM
T3 sequence 1: T1 sequence (A6NJ78 70-407)
T3 sequence 2: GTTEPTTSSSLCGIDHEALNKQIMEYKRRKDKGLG

[7] = target: T4, METTL15 K380A/K381A (Homo sapiens, UniProt A6NJ78 70-407, K380A;K381A); test: fluorescence polarization; FP: dilution buffer B (50 mM Na2HPO4, 150 mM NaCl, pH 7.0), 20 C, 15 min incubation, 80 nM FAM-RNA stock mixed 1:1 (40 nM final); 1:1 binding model; conditions: protein: recombinant; tags: SUMO tag removed (ULP1); label: 5'-FAM; hairpin
T4 sequence: T1 sequence (A6NJ78 70-407) with K311A, K312A

[8] = target: T5, METTL15 H231A/K234A/F262A (Homo sapiens, UniProt A6NJ78 70-407, H231A;K234A;F262A); test: as above; conditions: protein: recombinant; tags: SUMO tag removed (ULP1); label: 5'-FAM; hairpin
T5 sequence: T1 sequence (A6NJ78 70-407) with H162A, K165A, F193A

[9] = target: T6, METTL15 WT (Homo sapiens, UniProt A6NJ78 70-407); test: as above; conditions: protein: recombinant, tags: SUMO tag removed (ULP1), label: 5'-FAM
T6 sequence: T1 sequence (A6NJ78 70-407)

[10] = target: T7, METTL15 R327A/K330A/R331A (Homo sapiens, UniProt A6NJ78 70-407, R327A;K330A;R331A); test: as above; conditions: protein: recombinant; tags: SUMO tag removed (ULP1); label: 5'-FAM; hairpin
T7 sequence: T1 sequence (A6NJ78 70-407) with R258A, K261A, R262A

[11] = target: T8, METTL15 F262A/P263A/K270A (Homo sapiens, UniProt A6NJ78 70-407, F262A;P263A;R270A); test: as above; conditions: protein: recombinant; tags: SUMO tag removed (ULP1); label: 5'-FAM; hairpin
T8 sequence: T1 sequence (A6NJ78 70-407) with F193A, P194A, R201A

C[S+](CC[C@H](N)C(=O)O)C[C@H]1O[C@@H](n2cnc3c(N)ncnc32)[C@H](O)[C@@H]1O (some centres unmarked) [SAM]
Kd [1]: 2.99 ± 0.36 µM | Kd [2]: 17.3 ± 0.31 µM

GTTEPTTSSSLCGIDHEALNKAIMEYKRRKDKGLG (domain or fragment, human, UniProt Q8N0V3 226-260, looked up) [hsRBFA^226–260 Q247A]
Kd [3]: 0.41 µM | dH [3]: -11.5 ± 0.2 kcal/mol

GTTEPTTSSSLCGIDHEALNKQIMEYARRKDKGLG (domain or fragment, human, UniProt Q8N0V3 226-260, looked up) [hsRBFA^226–260 K252A]
Kd [3]: 19.6 µM | dH [3]: -17.2 ± 3.1 kcal/mol

GTTEPTTSSSLCGIDHEALNKQIMEYKRRKDKGLG (domain or fragment, UniProt Q8N0V3 226-260, looked up) [hsRBFA^226–260 (human hsRBFA, residues 226–260), wild type]
Kd [4]: 1.12 µM | dH [4]: -9.5 ± 0.34 kcal/mol | Kd [5]: 7.94 µM | dH [5]: -7.43 ± 0.32 kcal/mol

GTTEPTTSSSLCGIDHEALAKQIMEYKRRKDKGLG (domain or fragment, human, UniProt Q8N0V3 226-260, looked up) [hsRBFA^226–260 N245A]
Kd [3]: 0.61 µM | dH [3]: -10.6 ± 0.2 kcal/mol

CGACCGCCCGUAACGGUCG (structured_RNA) [5'-FAM-h44_dsRNA1]
Kd ([6]; hairpin): 1.15 ± 0.08 µM | Kd [7]: 2.68 ± 0.29 µM | binding result [8]: no binding | Kd ([9]; hairpin): 1.1 ± 0.09 µM | Kd [10]: 1.03 ± 0.15 µM | binding result [11]: no binding

CGACCGGAAGCGGUCG (structured_RNA) [5'-FAM-h44_dsRNA2]
Kd ([9]; hairpin): 0.77 ± 0.05 µM

CACACCGCCCGUCAC (ssRNA) [5'-FAM-h44_ssRNA3]
Kd [6]: 1.76 ± 0.16 µM | Kd [9]: 2.2 ± 0.33 µM

CGACACCGCCCGUAACGGUGUCG (structured_RNA) [5'-FAM-h44_dsRNA4]
Kd ([9]; hairpin): 2.33 ± 0.13 µM

AAAAAAAAAAAAA (ssRNA) [5'-FAM-polyA13]
Kd [9]: 0.61 ± 0.11 µM
